Source: PMC10237660

Target: C-terminal polyP binding domain of the E. coli exopolyphosphatase (EcPPXc) (E. coli strain K12)
Assay: SEC; analytical SE-UPLC, BEH200 4.6 x 300 mm column (Waters), running buffer 10 mM NaH2PO4, 400 mM (NH4)2SO4, pH 6.2; retention time compared with 158 kDa and 44 kDa standards

For “C-terminal polyP binding domain of the E. coli exopolyphosphatase (EcPPXc) (domain or fragment)”, which stoichiometry N is on record?
Its stoichiometry N is 2.
